{"source": "the NTF2 design screens of Basanta et al. (2020)"}
{"test": "protease stability score; higher = more stable; yeast display proteolysis, trypsin and chymotrypsin;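 note: relative to predicted unfolded state with 0 unfolded-like and 1 meaning tenfold more protease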"}
{"sequence": "TDEEKETEEHRKHFEHYERTGDWRELERLFDPNARLIIGDKILHGRELVTRWMFEFVKEMRINHIELHTMEIQGEKIHLDITVHVKFNGQERDIRVTEIHKKFDGRWTIEQIHFN", "protease stability score": 1.46}
{"sequence": "DEEDKDLHRWLEESTHAMLTGDEQHLTELADPNVKFNFDGREIHGREEYVKFMHRWIRHAGFKHIHVETKDVRVQGNKLHVDTHSIHDYNGRRVRTDTRVFVEKINGRWRLHSIEIE", "protease stability score": 1.4}
{"sequence": "DELEEELDQFQKLMVESSKTGDEDTEKKLADPNVRVDINGVILHGMENFVEFMRHWRIKHIHNKEVRFINGRAHVTGDVEGHVNGRDTRTRVTLIIIKINGRWFIEEVKFD", "protease stability score": 1.37}
{"sequence": "SEDEKSIKVAIELIINSVRTGDERFIKELADPHVRLEIGNKRVHGREEFAKLLSEENRQMRIHIIIDDVKSVGDFVFIRGTIEIHIDGVEERREFEIFVWKFNGRWVIKEERIH", "protease stability score": 1.43}
{"sequence": "SREEEEATHAVNRWMQLFITGDEESLRELADPDDRINIDGKDFHGREEFEMFMRLFVERFKNLRVELEDTRITVQGDKITVRFKIHFNINGVQTKTEVIIFSTKVNGRWHFKSEEVRHR", "protease stability score": 0.415}
{"sequence": "EEEHKFITDIVRLFQELLRTGDFTLLRRMIDPHARIDINGVENHGWEKTARHIWELGMTRESEVRIRDVKVYDGRVEIDIEVEIHNDYNGRKIVVRHEIILFVIKFNGRWNLEQIHIK", "protease stability score": 1.65}
{"sequence": "DEEEKVSRLAWELLFKTWKTGDEHEFHHMFDPDVRVDFNGRHLHGREAEEILFKQVDHIEDLHLRHIHMIDGKIQIEEDVVGHFNGQRTNVHVRFVAKKIDGRWRNKMVIVR", "protease stability score": 1.2}
{"sequence": "SEEHQTAEKMLRILLHLFLTGDEDKFEHLLDPHVRLHVGDKEIHGRELASKKLHEMVRHLRVRDVHVDTLDIQGNKMHFDTRIDVEQGDKTYILRFHWYNEKVDGRWRIHLVHYD", "protease stability score": 1.68}
{"sequence": "SEEDHHADEFRRIMYEIFETGDEKKFEDLFDPNVRWEQGDKHTHGMETATRDMLDLERRLGVDHIKYKDIRFELVDGRMIVYIIGTIYINGRPRHLHIEIIVSKINGRWFVENVRMKVE", "protease stability score": 2.14}
{"sequence": "HEEEEKARYFLEIFFHHLLTGDWHILMELLDPDVRMEYDGKKFHGRESAIEIWRELRVTEIHIRHIHMFNGRVYADTEMRGIVNGVNTNTHSELYVRKYDGRWKVEFVVVH", "protease stability score": 2.31}
{"sequence": "DEDEKNMHIAMEIYRESVETGNEKMHRHLLDPHARIRFDGQEFHGWKDAHRFMHHRTHEWRDHHIQLRDRDYIDGRVHIRVIIYGEFNGVRTTRDIEIHVEKIDGRWYFTNLIFG", "protease stability score": 0.285}
{"sequence": "DENEQEARKAIEELIHNRETGDEQRMSELLDPHTRIDYNGVEVHGRHYLLKLLRRIDHSRFNLRRLDIQGEKIIMEGELELDVNGVKIRIKLTEIILKVNGRWILHSSRIE", "protease stability score": 1.95}
{"sequence": "TEDEKFVEEFTRLIMHSFRTGDWELFEHLLDPDTRIEQGDWERIGMEEAIRLLHKVVHEMRVTHTDLKSITVIDGRIEIDARVHLEFNGQSVTYTQLILSIKIDGRWVLKSVHFH", "protease stability score": 1.87}
{"sequence": "SEDEHRSRHDAELFLKFVKTGDEHHLQRFADPNVQFHQGEWEDHGRESLREQFRKFMEDLGADHSELESIRVHIQGDKMTVHIHVTFRVGDKTIKSTWRFYITKINGRWTMERMDVELH", "protease stability score": 0.629}
{"sequence": "DETEEDARHFVELWRRDMITGDEDRIKEMADPNVRVIIGDKNLHGREDMTEVLRHLRIHRVNVHSIHVQGDWVHITTEVDGRIGDKRHELEVHILTRKVNGRWQLQTLEIG", "protease stability score": 1.12}
{"sequence": "SEDEHHLERALKEWIKVFETGDEDKEKKMADPHMRTDINGVELHGRELMITLIVELWEKLGVDHLEFNLSRFEIVNGQVFLHMEENLFVNGQRLRFKHEIIFNKVDGRWIVEEIRIH", "protease stability score": 1.26}
{"sequence": "SEEEEEARKFSEDLIRSTRTGDEKAWNDLLDPDVRIDINGKTHHGREEFLKLLQHLRERADHWRIELKHTDVYDGKVHHDIHVQISVGDKTFHHRIHLIVVKIDGKWLLKRVDVR", "protease stability score": 2.16}
{"sequence": "DHREKEVHFMAKWIVEIFQTGDEDMWRHLADPDVRLDIVQGEKRDNNVGREVSEKTLKELRHHWGLERVEVRVDHIDHQGDKARVDGTVNINGVHFKTEIVIIVVDGRFKRVKYIIG", "protease stability score": 1.39}
{"sequence": "SEDHDLVREVARLYIDAVKTGDEDLIRFLFDPHVRSEINGVQLHGWEEVFRFWQELRVHHIDLHSVHVEFQGDKAINRNEVHYNGEYGDKRNRYRLDLRIILHKIDGRWIVEEVHLITD", "protease stability score": 1.45}
{"sequence": "DEDTQRREEWHHQFIMSMRTGDERLLLELVDPNYRSDINGVELHGWEFAEKLMRDAGVKHYELKRVHHIGDKMIVDGVTTFNGKERRVIFIARKIDGRWLITSSHFE", "protease stability score": 1.31}
{"sequence": "DEMEKWSEMALDLIAETVETGDEHTYRRNFDPHTRVNVNGRHLHGMEVWLKELHELGIDRIEMDMKDIRIQGDKAIIILTLIINGRFHHVSIVSVKIDGRWHLHSVKYD", "protease stability score": 0.33}
{"sequence": "DDYEKSSKVVWQILVRALETGDEEELRDLFDPHVRIQIGEFHFHGWETVHEHMRRADHIIVRDSKSRDIDHQGNKVILHVDLHIEFTYNGVERSTTFRSNMIMVKVNGKWVIEKIHLQ", "protease stability score": 1.55}
{"sequence": "EEEERILFEEMEHLLHNFLTGNEEHLHELIDPRVRILIGDKDIHGMELHANIWKKVKGIKEEYHVHRVKLYNGRNEMDTEVRRVIDGQELSVRTKIIFDVVDGKLKSAEIRFH", "protease stability score": 0.771}
{"sequence": "DEWEETAKKATKDQLRDVATGDEDSHESLLDPNVKLQVGDKTFHGREEIHRWLREFLNKIPNIRLEVKEIHTQGDFVILDMKMDIDGREIHVRIVMIKVDGRWFVNKLIII", "protease stability score": 0.615}
{"sequence": "QEEEEFVRKFVHEVIRALMTGDEHRMHELLDPHVISSRHIGDKHVHYHGREEVLRHLHEWLTHLRIKSLEIRSHKAFDGRMIVHGTLFGQQGDKDVEFEVIIDLEVINGRIKHFHVELR", "protease stability score": 1.32}
{"sequence": "SEHEKHNRDVVRIVLHALLTGDEELFEENADPNVRTEIDVNGKEIQIHGRSKWVEWLRREIERFDHVRIDLKRIDVQGDKLHTDGHLRLKQGDKEITTDVRLHIVVVDGRIDSMEMSVH", "protease stability score": 2.1}
{"sequence": "SEDEQSLREHIEWIIRALETGDWKKIEKLLDPHTRQDVNGREHIGREEVSRAIVQTFETLGVDHVQLTEIRNINGRLIVHVKMDVNGKILDLELIVTKIDGKWFMESVRLH", "protease stability score": 1.89}
{"sequence": "SEDEFDARLVYKLVLDLLLTGDPDTWRKLFDPNVKINIDGVDYHGMKEFERIVKEIRVIIHDSELHDVETQGDKIIYHGIIDGTYHVNGRTIRERRTFTIIAHKVDGRWILHSISYE", "protease stability score": 1.22}
{"sequence": "DTEDKLSEEALKDLLEKVKTGDPQVMEELADPEVKVDIGDKNLHGREEYTRWVEKLWKRVPNLKLEIDHVEFQGDYVLIEGRIIYNGRKHKIKIHSLKIDGRWLIETVRIR", "protease stability score": 1.39}
{"sequence": "DEEHEMIQTHLRLFHEALLTGDEEELHRLLDPNVRVDIGDKHLHGREVVIHWMRQIRVKHLDLDLDHERSVNGRVDIKGTLRSDVIINGQRHKTSHTLHFHATKINGRWFIKEYIVD", "protease stability score": 2.06}
{"sequence": "SEEEEEAWRSTEKWTHSEKTGDFESLLRLADPNARVHVNGRELVGMETVIRRFIEHVERFKNIRIQHHTEHIEFYGDKVIIDSRLHISIGDKTITITIELVTTKFNGRWLLQEITIK", "protease stability score": 0.475}
{"sequence": "DEEEHSLRLALKILIHTRRTGDEHLLTEMADPNTRLDVNGVEVHGMEIFSKLTHEVVKRADHVEVHVKHIDIYGDKIRVHSEINYRQGDKEHSEKVHLVIKKFNGRWILHFVHIG", "protease stability score": 1.48}
{"sequence": "SEEEKELEEALKIQEEFWRTGDEHSLRELADPHARVHIDGRDLHGREFWSMLSNQLRIEHIEVKSVELVDGRLEADVHVTGRYNGRDVKTRMRLEIVKINGVWYLESTEIN", "protease stability score": 0.407}
{"sequence": "DDWERLYLHLARLWFELILTGDEETIDKMVDPHTRLEIGDFESHGREELRYLFHHMRSHEIRIRSFDTYGDKAIIDGEIDTIINGRRMIVKIRLHVIIINGRVHSIKVEHE", "protease stability score": 1.08}
{"sequence": "DEDEENIRKEVEIFKHLLETGNEQEMSKLADPNTRFYYGDKTIHGREEMIKFLHEEWRHLGVKHNEYRVKEMRSINGRAIIHGELIWKSENEIIHRDVLIIARKVDGKWVSESVHVH", "protease stability score": 1.23}
{"sequence": "DEDHHESHRALTELFKDLLTGDWKSSKELADPHARVDINGKEYHGREEMERFFKELWERLGIDHIDVKHIEIQGNKVISHLEIHVNGRTFNLIIIIDKVNGRWIIHSMKMDTE", "protease stability score": 0.968}
{"sequence": "SEEEEEIERYVQHLVHNILTGDWEMIQELADPNAKIDIDGRHFHGREQFVDLMLRLIESLGIDHLRLTHVRIQGDYMELHVEVHVGDKRVELESFATKIDGRWFVKSFTKR", "protease stability score": 1.97}
{"sequence": "DEDEEEIKRMIEEWFRSLVTGDEHQLKELMDPHVRLDINGVEHIGREEIVERLVKEARQADHMEFRVRDVRLVGDYAEIDGELIVNYNGREKSIETRIILWKFNGRWIDHQVHYK", "protease stability score": 1.03}
{"sequence": "DELKEISDEIVLMFDRAIRTGDEHTMKKLLDPNYLLRVDGVDIVGRERFTEIIRQFDHVDYESHRIRDVSIQGDKIDVDSETDIHFTYNGKRERRTYRVRIIILKINGRWRIHEVHLH", "protease stability score": 1.77}
{"sequence": "TEEEELLTRLARQILRWLLTGDEDKHSRMLDPRDRSVIGDKESVGMEESVKNWRIWLEEMRLKHVQLRDVRIVDGVVHLDIHLFGHINGVHIDRESRMDVYIVNGRIHRIRIIEH", "protease stability score": 1.3}
{"sequence": "SDDERLAHHLVELLLHNIETGDFRMLMHLIDPNVRIDINGVEIHGREEWHKHLRTLGFDHFELHIDSIDAFDGKVIVHTTIRIKYNGVHFEKKTHLIAEKFDGRWYMREIRER", "protease stability score": 1.55}
{"sequence": "DELEKAMRTAVELFRHLIETGDEEFMQRLADPHTQLIVGDKTFHGRDHVVHEWEKFKNVKYRFEDVEFQGDKIILHSTLEFDGRRLETHIQLHKINGRWLLKRVEIK", "protease stability score": 1.39}
{"sequence": "STEEEELRDYLEILDHLWKTGDFDRLLNLIDPHVRLEVNGREHHGMRWFETIIRKLGHDNISVHINNEKVHIVDGRAHWEGKKILIYDGRFHDFHTHLFFLKIDGKWKLKEVEYH", "protease stability score": 1.26}
{"sequence": "DEVKKFLDELLEILRKYSETGDEDSYTEMFDPNTRLLFEGRKFVGREEAIKFLRRVDVFSIKNFTMRHVETQGDWLHIDGEVLLLIIFNGKTFELKTKITFIMLKIDGRWILHAEEIR", "protease stability score": 1.71}
{"sequence": "EEHYEDMHHAMELFIHAVRTGDEHTLSRMLDPNTRIRIDGVHLIGREQAVKWWLELYKKFPNMRLNLKRIDIFDGKLHVDLETNINGVRLDSHLLISKVDGQWRVDSIQHE", "protease stability score": 1.5}
{"sequence": "DEEERLLLEWVRLFLTAWETGDEKLQEKLMDPHARTDFNGVQLHGREEYSRFLSQLRIRRFHVRDESIRIVGNKAESEVDGEVEGEVNGQRFKQHTEIEIHSEKINGRWLWKSLTIRIK", "protease stability score": 1.5}
{"sequence": "VEDLREYIRIAEELVKSWITGDWDRLRKLVDPNVRLDVDGVENIGRDHVHRALEEHEKHIRLKDHRIEHIDAVDGKSTMHTRSHFHINGVEHEVNVHMEFVIVNGRVTEMRISIR", "protease stability score": 1.02}
{"sequence": "DEEKEEWEELFKEFEHSIHTGDFRVLAKQMDPHVRIIYGEKRVHGREDAHKLMRDTLEKLGVDHMHVEDNHLQGDFIHLQIRRHVNGRTMTVHFLIWKYNGRWYMHSIKIE", "protease stability score": 1.43}
{"sequence": "DETEEEARHVFELIIEYHLTGDWDKWLRMFDPHVKLVVNGRDNHGREHAVHRLKEFLRQWRIHDVEVKSVDLQGDKVRVDGRLDGIVNGVREKTEVTLSLIVVDGKIKSHEVRIH", "protease stability score": 1.51}
{"sequence": "DDIEEDVKEFLRLMKEMNETGDEHRLTEMADPNVRVHIGDKHFHGREDAERLWRRADVFHHIKIKEYELQGDKLYMNVEVDGKFDGKRIRHDVTEIVTKVNGRWLLRSIRFD", "protease stability score": 0.577}
